Test results: article PMC6697728

Molecular target: EphB2-GFP (UniProt P29323)
Sequence of UniProt P29323 (P29323 19-1055): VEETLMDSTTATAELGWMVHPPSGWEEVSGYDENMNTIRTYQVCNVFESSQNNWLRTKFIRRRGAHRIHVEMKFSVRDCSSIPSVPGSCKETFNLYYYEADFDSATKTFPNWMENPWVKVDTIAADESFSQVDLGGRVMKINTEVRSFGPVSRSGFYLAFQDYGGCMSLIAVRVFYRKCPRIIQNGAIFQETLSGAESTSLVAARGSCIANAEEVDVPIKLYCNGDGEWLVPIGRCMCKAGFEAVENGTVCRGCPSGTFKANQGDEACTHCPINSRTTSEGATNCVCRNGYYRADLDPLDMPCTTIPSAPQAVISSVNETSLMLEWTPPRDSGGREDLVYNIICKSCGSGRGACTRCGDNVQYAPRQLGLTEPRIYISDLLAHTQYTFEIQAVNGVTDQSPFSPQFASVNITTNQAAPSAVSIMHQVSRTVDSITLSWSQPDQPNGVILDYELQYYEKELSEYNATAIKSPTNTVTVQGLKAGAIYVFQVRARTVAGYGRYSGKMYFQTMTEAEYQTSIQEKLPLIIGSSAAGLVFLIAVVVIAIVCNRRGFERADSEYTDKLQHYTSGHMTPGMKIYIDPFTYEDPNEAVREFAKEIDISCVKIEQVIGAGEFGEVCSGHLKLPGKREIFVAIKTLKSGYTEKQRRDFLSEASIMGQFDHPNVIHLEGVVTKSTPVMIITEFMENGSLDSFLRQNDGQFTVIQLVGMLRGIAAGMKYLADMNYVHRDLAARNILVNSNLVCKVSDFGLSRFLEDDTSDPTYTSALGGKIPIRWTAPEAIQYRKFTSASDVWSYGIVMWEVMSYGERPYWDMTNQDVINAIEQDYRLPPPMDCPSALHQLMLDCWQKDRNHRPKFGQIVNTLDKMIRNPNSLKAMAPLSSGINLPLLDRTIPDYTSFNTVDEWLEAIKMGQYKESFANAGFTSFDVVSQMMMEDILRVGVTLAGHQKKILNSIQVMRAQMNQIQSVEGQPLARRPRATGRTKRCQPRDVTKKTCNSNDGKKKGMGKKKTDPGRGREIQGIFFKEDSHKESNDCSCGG

decrease in HeLa cell area (collapse) of Control shRNA EphB2-OE cells after 15 min with 1 ug/mL pre-clustered eB2 against Fc: 50%
Substance: ephrin-B2-Fc (from UniProt P52799 28-229) (Fc fusion)
